# Assays:
# [1] = tested on: GNCR: NS3a system; assay: Grazoprevir-inducible SEAP translation in HEK-293 cells (fold-change, dose-dependence, kinetics vs transcriptional switch); settings: three tandem GNCR and NS3a repeats
# From the text: Optimization of an L7Ae-based grazoprevir-inducible gene switch. (A) Translational regulation by grazoprevir-dependent STIF association. […] (B) Translational regulation by different grazoprevir-dependent NSP3-fusion proteins. […] (C) Translational regulation by different grazoprevir-dependent L7Ae-fusion proteins.
# Optimized L7Ae- and MCP-based grazoprevir-inducible gene switch in mammalian cells. (A) Optimized grazoprevir-inducible regulation of SEAP translation. […] (B, C) Dose-dependent grazoprevir-inducible SEAP expression.
# Comparative analysis of gene switches based on STIF-based translation and state-of-the-art transcription-centered designs. (A) Kinetics of grazoprevir-inducible SEAP expression. […] (B) Endpoint performance of grazoprevir-induced translational and transcriptional gene switch switches.
# [2] = tested on: endogenous RNA (GAPDH); assay: RIP-qPCR: endogenous RNA binding of PABP- and NSP3-fusion proteins; design: species or system human; settings: 3×FLAG-tagged L7Ae-NSP3 vs PABP-L7Ae, 48 h
# From the text: RNA immunoprecipitation (RIP)-qPCR.
# [3] = tested on: STIF-specific target gene mRNA; assay: Translational regulation by constitutive bipartite STIF reconstitution (SEAP, NanoLuc) in HEK-293 cells; assay type: cell-based, human; settings: 48 h
# From the text: FIG. 8. Translational regulation by spontaneous assembly of bipartite STIFs. (A) Translational regulation through constitutive STIF reconstitution. […] Transfection of pcDNA3.1 (+) instead of NSP3-fusion proteins was used as a negative control. […] (B) Compatibility of STIF-mediated translational regulation with split-complementation approaches. […] For (−) conditions, pcDNA3.1 (+) was transfected instead of expression vectors.
# FIG. 9. Translational regulation through constitutive Coh2/DocS-mediated STIF reconstitution. (A) Site-specific translational activation by eIFBP overexpression. HEK-293 cells were (co-) transfected with an expression vector for SEAP-mRNA containing 24 tandem C/D-box-(left panel, pSL355) or MS2-box repeats in the 3′-UTR (right panel, pSL468), constitutive expression vectors for L7Ae (left) or MCP (right) fused to Coh2 (L7Ae-Coh2, pSL83; MCP-Coh2, pSL674) or EGFP (L7Ae-EGFP, pSL1078; MCP-EGFP, pSL435) and constitutive expression vectors for various chimeric Coh2-specific DocS-containing eIFBP fusions (PABP-DocS, pSL47; DocS-eIF4G, pSL87; DocS-eIF4E, pLZ312; DocS-NSP3, pSL66; DocS-VPg, pLZ311). Transfection of pcDNA3.1 (+) instead of DocS- or MCP-expressing vectors was used as a negative control. […] SEAP (left) and NanoLuc levels in culture supernatants (right) were quantified at 48 h post-transfection. […]
molecule,measurement,setting,value
(GNCR)3-NSP3: trigger-inducible STIF regulator (protein) MDIEKLCKKAEEEAKEAQEKADELRQRHPDSQAAEDAEDLANLAVAAVLTACLLAQEHPNADIAKLCIKAASEAAEAASKAAELAQRHPDSQAARDAIKLASQAARAVILAIMLAAENPNADIAKLCIKAASEAAEAASKAAELAQRHPDSQAARDAIKLASQAAEAVERAIWLAAENPNADIAKKCIKAASEAAEEASKAAEEAQRHPDSQKARDEIKEASQKAEEVKERCKSASGSGGGGDVASDIEKLCKKAEEEAKEAQEKADELRQRHPDSQAAEDAEDLANLAVAAVLTACLLAQEHPNADIAKLCIKAASEAAEAASKAAELAQRHPDSQAARDAIKLASQAARAVILAIMLAAENPNADIAKLCIKAASEAAEAASKAAELAQRHPDSQAARDAIKLASQAAEAVERAIWLAAENPNADIAKKCIKAASEAAEEASKAAEEAQRHPDSQKARDEIKEASQKAEEVKERCKSASGSGGGGDVASDIEKLCKKAEEEAKEAQEKADELRQRHPDSQAAEDAEDLANLAVAAVLTACLLAQEHPNADIAKLCIKAASEAAEAASKAAELAQRHPDSQAARDAIKLASQAARAVILAIMLAAENPNADIAKLCIKAASEAAEAASKAAELAQRHPDSQAARDAIKLASQAAEAVERAIWLAAENPNADIAKKCIKAASEAAEEASKAAEEAQRHPDSQKARDEIKEASQKAEEVKERCKSASGSGGGGDVASMLKMESTQQMASSIINTSFEAAVVAATSTLELMGIQYDYNEVYTRVKSKFDYVMDDSGVKNNLLGKAATIDQALNGKFGSAARNRNWMADTRTTARLDEDVNKLRMMLSSKGIDQKMRVLNACFNVKRVPGKSSSIIKCTRLMRDKIERGEVEVDDSFVEEKMEVDTIDWKSRYEQLEKRFESLKQRVNEKYTSWVQKAKKVNENMYSLQNVISQQQSQIADLQNYCNKLEVDLQNKISSLVSSVEWYLKSMELPDEIKTDIEQQLNSIDVINPINAIDDFESLIRNIILDYDRIFLMFKGLMRQCNYEYTYE,"regulation performance (fold-change, dose-dependence, activation kinetics)",[1],best regulation performance
NSP3: rotaviral non-structural protein 3 (protein) LKMESTQQMASSIINTSFEAAVVAATSTLELMGIQYDYNEVYTRVKSKFDYVMDDSGVKNNLLGKAATIDQALNGKFGSAARNRNWMADTRTTARLDEDVNKLRMMLSSKGIDQKMRVLNACFNVKRVPGKSSSIIKCTRLMRDKIERGEVEVDDSFVEEKMEVDTIDWKSRYEQLEKRFESLKQRVNEKYTSWVQKAKKVNENMYSLQNVISQQQSQIADLQNYCNKLEVDLQNKISSLVSSVEWYLKSMELPDEIKTDIEQQLNSIDVINPINAIDDFESLIRNIILDYDRIFLMFKGLMRQCNYEYTYE,non-specific binding to endogenous RNA (GAPDH RNA IP/input),[2],much less non-specific binding to endogenous RNA than PABP
(DocS)3-NSP3: bipartite STIF regulator (protein) MSTKLYGDVNDDGKVNSTDAVALKRYVLRSGISINTDNADLNEDGRVNSTDLGILKRYILKEIDTLPYKNASGSGGGGDVASMSTKLYGDVNDDGKVNSTDAVALKRYVLRSGISINTDNADLNEDGRVNSTDLGILKRYILKEIDTLPYKNASGSGGGGDVASMSTKLYGDVNDDGKVNSTDAVALKRYVLRSGISINTDNADLNEDGRVNSTDLGILKRYILKEIDTLPYKNASGSGGGGDVASMLKMESTQQMASSIINTSFEAAVVAATSTLELMGIQYDYNEVYTRVKSKFDYVMDDSGVKNNLLGKAATIDQALNGKFGSAARNRNWMADTRTTARLDEDVNKLRMMLSSKGIDQKMRVLNACFNVKRVPGKSSSIIKCTRLMRDKIERGEVEVDDSFVEEKMEVDTIDWKSRYEQLEKRFESLKQRVNEKYTSWVQKAKKVNENMYSLQNVISQQQSQIADLQNYCNKLEVDLQNKISSLVSSVEWYLKSMELPDEIKTDIEQQLNSIDVINPINAIDDFESLIRNIILDYDRIFLMFKGLMRQCNYEYTYE,target gene translation by spontaneous STIF assembly (SEAP),[3],modular and effective translational regulation
